Broadly, the Kd is the equilibrium constant for the complex coming apart. Lower therefore signals tighter binding.

The source of these data is US6969517 (dated 2005).

Read-outs that look alike come from different tables or passages of the source.

Assay [1] deals with T1, EpCAM (KSA) (human, UniProt P16422).
T1 chain: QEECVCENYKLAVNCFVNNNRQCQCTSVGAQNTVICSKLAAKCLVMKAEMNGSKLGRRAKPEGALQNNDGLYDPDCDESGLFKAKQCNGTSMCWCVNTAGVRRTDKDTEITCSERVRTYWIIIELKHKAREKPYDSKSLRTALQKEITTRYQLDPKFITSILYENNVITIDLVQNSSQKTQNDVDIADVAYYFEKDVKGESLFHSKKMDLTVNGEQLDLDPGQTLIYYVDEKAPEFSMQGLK
As to the kind of experiment: SPR. A general note: In SPR one partner is held on a chip, and binding of the other changes the refractive index at the surface.

For assay [2], the target named is T1, EpCAM (KSA). Kind of assay: SPR.
Assay [3] has as its target T1, EpCAM (KSA). Kind of assay: ELISA. A general note: ELISA stands for enzyme-linked immunosorbent assay.
Assay [4] deals with T1, EpCAM (KSA). Kind of assay: ELISA.

B1: VK8/VH7-IL2 (antibody, V domains shown)
VH: QIQLVQSGAEVKKPGETVKISCKASGYTFTNYGMNWVKQTPGKGLKWMGWINTYTGEPTYADDFKGRFAFSLETSTSTAFLQINNLRSEDTATYFCVRFISKGDYWGQGTSVTVSS
VL: EIVLTQSPATLSLSPGERVTLTCSASSSVSYMLWYQQKPGSSPKPWIFDTSNLASGFPARFSGSGSGTSYSLIISSMEAEDAATYYCHQRSGYPYTFGGGTKLEIK
Consider B1, for which binding with EpCAM (KSA) [1] was put at a Kd of 1 nM.

B2: VK8/VH7 (Construct 3) (antibody, V domains shown)
VH: QIQLVQSGAEVKKPGETVKISCKASGYTFTNYGMNWVKQTPGKGLKWMGWINTYTGEPTYADDFKGRFAFSLETSTSTAFLQINNLRSEDTATYFCVRFISKGDYWGQGTSVTVSS
VL: EIVLTQSPATLSLSPGERVTLTCSASSSVSYMLWYQQKPGSSPKPWIFDTSNLASGFPARFSGSGSGTSYSLIISSMEAEDAATYYCHQRSGYPYTFGGGTKLEIK
On to B2, for which, in the assay with EpCAM (KSA) [2], the equilibrium dissociation constant (Kd) is 1 nM.

B3: VK0/VH0 (hybridoma chKS-1/4) (antibody, V domains shown)
VH: QIQLVQSGPELKKPGETVKISCKASGYTFTNYGMNWVRQAPGKGLKWMGWINTYTGEPTYADDFKGRFVFSLETSASTAFLQLNNLRSEDTATYFCVRFISKGDYWGQGTSVTVSS
VL: QILLTQSPAIMSASPGEKVTMTCSASSSVSYMLWYQQKPGSSPKPWIFDTSNLASGFPARFSGSGSGTSYSLIISSMEAEDAATYYCHQRSGYPYTFGGGTKLEIK
Molecule B3 returned a dissociation constant Kd with EpCAM (KSA) [2] of 1 nM.

B4: '369 chKS-1/4 (VK0/VH'369) (antibody, V domains shown)
VH: QIQLVQSGPELKKPGETVKISCKASGYTFTNYGMNWVKQTPGKGLKWMGWINTYTGEPTYADDFKGRFAFSLETSASTAFLQIQQPQNMRTMATYFCVRFISKGDYWGQGTSVTVSS
VL: QILLTQSPAIMSASPGEKVTMTCSASSSVSYMLWYQQKPGSSPKPWIFDTSNLASGFPARFSGSGSGTSYSLIISSMEAEDAATYYCHQRSGYPYTFGGGTKLEIK
Consider B4, for which, in the assay with EpCAM (KSA) [3], the binding result is “no binding”.

B5: VK6/VH6 (Construct 1) (antibody, V domains shown)
VH: QVQLVQSGAEVKKPGESVKISCKASGYTFTNYGMNWVRQAPGKGLEWMGWINTYTGEPTYAQKFQGRVTISLDTSTSTAYLQLSSLRAEDTAVYFCVRFISKGDYWGQGTSVTVSS
VL: EIVLTQSPATLSLSPGERVTLTCSASSSVSYMLWYQQKPGQAPKLLIFDTSNLASGIPARFSGSGSGTDYTLTISSLEPEDFAVYYCHQRSGYPYTFGGGTKLEIK
For B5, the binding result with EpCAM (KSA) [4] is on record as “no binding”.

B6: VK1/VH1-IL2 (antibody, V domains shown)
VH: QIQLVQSGPELKKPGSSVKISCKASGYTFTNYGMNWVRQAPGKGLKWMGWINTYTGEPTYADDFKGRFTITAETSTSTLYLQLNNLRSEDTATYFCVRFMSKGDYWGQGTTVTVSS
VL: QIVLTQSPASLAVSPGQRATITCSASSSVSYILWYQQKPGQPPKPWIFDTSNLASGFPSRFSGSGSGTSYTLTINSLEAEDAATYYCHQRSGYPYTFGGGTKVEIK
B6 yielded an equilibrium dissociation constant (Kd) with EpCAM (KSA) [1] of 7.9 nM.

B7: VK1/VH2-IL2 (antibody, V domains shown)
VH: QIQLVQSGPELKKPGSSVKISCKASGYTFTNYGMNWVRQAPGKGLKWMGWINTYTGEPTYADDFKGRFTITAETSTSTLYLQLNNLRSEDTATYFCVRFISKGDYWGQGTTVTVSS
VL: QIVLTQSPASLAVSPGQRATITCSASSSVSYILWYQQKPGQPPKPWIFDTSNLASGFPSRFSGSGSGTSYTLTINSLEAEDAATYYCHQRSGYPYTFGGGTKVEIK
Consider B7, for which, in the assay with EpCAM (KSA) [1], the Kd worked out at 3.1 nM. This Kd lies about 2.5-fold lower than the previous one.
